The record followed here is PMC4070925.

Sequences and labels used below:
B1: Bivalent Linker 3 (structured_DNA)
DNA: AGATGCCTGTCGAGCATGCTGGTTGGTGTGGTTGGGTAGGGGCCCAGCATGACAGTTTTTGCCAAAGTCCGTGGTAGGGCAGGTTGGGGTGACTGTAGCTAAACTGCTTTGTCGACGGG
B2: Bivalent Linker 1 (structured_DNA)
DNA: AGATGCCTGTCGAGCATGCTGGTTGGTGTGGTTGGATTGGGGGGCAGAATGCCAGTTTAGCGTACAGTCCGTGGTAGGGCAGGTTGGGGTGACTGTAGCTAAACTGCTTTGTCGACGGG
B3: Bivalent Linker 4 (structured_DNA)
DNA: AGATGCCTGTCGAGCATGCTGGTTGGTGTGGTTGGGTTGTGGGGAATAAAAGCAGTTTAGCGTACAGTCCGTGGTAGGGCAGGTTGGGGTGACTGTAGCTAAACTGCTTTGTCGACGGG
B4: Bivalent Linker 5 (structured_DNA)
DNA: AGATGCCTGTCGAGCATGCTGGTTGGTGTGGTTGGAAGTAGGTGGTTCAAAGCAGTGAAGGGTACAGTCCGTGGTAGGGCAGGTTGGGGTGACTGTAGCTAAACTGCTTTGTCGACGGG
B5: Truncate II (structured_DNA)
DNA: AGATGCCTGTCGAGCATGCTGGTTGGTGTGGTTGGTTGGTTGGCGTTCAAAGCAGTCTTGGGCTAAGTCCGTGGTAGGGCAGGTTGGGGTGACT
B6: Bivalent Linker 2 (structured_DNA)
DNA: AGATGCCTGTCGAGCATGCTGGTTGGTGTGGTTGGTTGGTTGGCGTTCAAAGCAGTCTTGGGCTAAGTCCGTGGTAGGGCAGGTTGGGGTGACTGTAGCTAAACTGCTTTGTCGACGGG
B7: Truncate I (structured_DNA)
DNA: GGTTGGTGTGGTTGGTTGGTTGGCGTTCAAAGCAGTCTTGGGCTAAGTCCGTGGTAGGGCAGGTTGGGGTGACTGTAGCTAAACTGCTTTGTCGACGGG
B8: Bivalent Linker 6 (structured_DNA)
DNA: AGATGCCTGTCGAGCATGCTGGTTGGTGTGGTTGGCGGGGGCCCTCTATAGTTGCGTTCTGGATGAGTCCGTGGTAGGGCAGGTTGGGGTGACTGTAGCTAAACTGCTTTGTCGACGGG
B9: Truncate III (structured_DNA)
DNA: GGTTGGTGTGGTTGGTTGGTTGGCGTTCAAAGCAGTCTTGGGCTAAGTCCGTGGTAGGGCAGGTTGGGGTGACT

The target of the series is thrombin (UniProt P00734;P00734 315-363;364-622). Description: plate binding assay (streptavidin-peroxidase); Thrombin-coated plate; 5'-biotin aptamer in HEPES buffer (full composition not in material) 1 h; washes 40 mM HEPES pH 7.5, 0.05% Tween-20; block 1 mg/ml BSA +.
In the case of AGTCCGTGGTAGGGCAGGTTGGGGTGACT (structured_DNA) [Apt-29], the “apparent K (half saturation)” value came to 0.7 nM. As for B1, the “apparent K (half saturation)” value stood at 0.4 nM.

As to B2, the “apparent K (half saturation)” value amounted to 1.4 nM. The result for B3 reads 0.4 nM. On to B4, for which the “apparent K (half saturation)” value was 1 nM. Consider B5, for which the “apparent K (half saturation)” value was determined as 0.5 nM.

Consider B6, for which the “apparent K (half saturation)” value was 0.2 nM. As for B7, the “apparent K (half saturation)” value came to 1 nM. With B8, the “apparent K (half saturation)” value was about 20 nM. Under B9 stands 0.5 nM.
